# Data published in publication PMC4931181.
# Several values for one entry are separate records, joined by “and”; a condition that tells them apart may be missing. Equal entries are not always repeated. Where two headings read alike, the source gives them in different places.
# Legend:
# [1] = system: H2A-H2B heterodimer (Xenopus laevis); test: EMSA
# [2] = system: H2A-H2B heterodimer;yNap1 (Xenopus laevis;Saccharomyces cerevisiae); test: EMSA
# [3] = molecular target: yNap1_IF1 (G225D, S237D, T244D, D246R) (Saccharomyces cerevisiae) (UniProt P25293); test: native MS
# [4] = molecular target: yNap1_IF1 (G225D, S237D, T244D, D246R) (Saccharomyces cerevisiae) (UniProt P25293); test: native MS; remark: listed apart in the source
Substance,Kd [1] [nM],Kd [2] [nM],stoichiometry N [3],stoichiometry N [4]
(H3-H4)2-DNA tetrasome on 147-bp 601 DNA,29,940,,
"yNap1_IF1 (G225D, S237D, T244D, D246R) (from UniProt P25293 1-417) (natural protein)",,,2,2 and 4
